Experimental data: patent publication US20210340516A1, “COMPOSITIONS CONTAINING ARGINASE 1 FOR THE TREATMENT OF NEUROVASCULAR AND RETINAL VASCULAR DISORDERS” (Augusta University Research Institute, Inc., priority 2020, published 2021)

What was measured:
[1] = Retinal ischemia-reperfusion (IR) injury: PEG-A1 penetration of the blood-retina barrier (anti-PEG Western blot, flat-mount immunolabeling); format: in vivo, mouse
Procedure: (§1) Mouse retinal ischemia-reperfusion (IR) injury and traumatic optic neuropathy (TON) models: All experiments were performed in accordance with the ARVO Statement for the Use of Animals in Ophthalmic and Vision Research and were approved by the institutional animal care and use committee (Animal Welfare Assurance no. D16-00197). Wild-type (WT) C57BL/6J mice (10-12 weeks old) were anesthetized using ketamine/xylazine mixture then subjected to retinal ischemia-reperfusion (IR) injury or optic nerve crush (ONC) to model traumatic optic neuropathy (TON) as described in Shosha, et al., Cell death & disease, 7:e2483-e (2016) and Xu, et al., Frontiers in Neuroscience, 12:970 (2018). Mice were sacrificed at 24 hours or 7 days after by deep anesthesia followed by trans-cardial perfusion with PBS or thoracotomy and eyeballs were collected and fixed in 4% PFA for immunolabeling or retinas were extracted without fixation and homogenized in Radioimmunoprecipitation Assay (RIPA) lysis buffer for Western blotting.
Western blotting: Western blotting on retina or brain was conducted as described in Fouda, A Y, et al., Cell death & Disease, 9:1001 (2018). Membranes were probed with anti-PEG (RevMAb Biosciences, 1:1000) and anti-albumin (Bethyl Laboratories, 1:5000). Uncropped blots are included in FIG. 22.
Fluorescent immunolabeling: Retinal flat-mounts were permeabilized and immunolabeled with anti-PEG antibody (RevMAb Biosciences, 1:400) and co-stained with Alex594-labeled Griffonia simplicifolia isolectin B4 (1:200; Invitrogen) as described in Shosha, et al., Cell death & disease, 7:e2483-e (2016).
Mice were deeply anesthetized and sacrificed 24 hours later by trans-cardial perfusion with PBS (FIG. 16A). […] These mice were sacrificed at day 7 without trans-cardial perfusion and retina flat-mounts were immunolabeled to show PEG distribution within the retina (FIG. 16D).
PEG-A1 treatment in acute retinal and brain injury mouse models: A pharmaceutical grade of PEG-A1 was provided as a kind gift from Bio-Cancer Treatment International Limited (BCT, Hong Kong). […] Methoxy polyethylene glycol propionic acid (MW 5,000—Sigma, Catalog number 88908-1G-F) was used as vehicle control.

[2] = test system: WT C57BL/6J mice subjected to retinal ischemia-reperfusion (IR) injury; assay: Retinal ischemia-reperfusion (IR) injury: neuronal survival by NeuN labeling of retinal flat-mounts; format: in vivo, mouse; details: 25 mg/kg i.p. at 3 hours and day 4, 7 days post-injury; vehicle group 40%
Procedure: as §1, with “Mice were sacrificed at 24 hours or 7 days after by deep anesthesia followed by trans-cardial perfusion with PBS or thoracotomy and eyeballs were collected and fixed in 4% PFA for immunolabeling or retinas were extracted without fixation and homogenized in Radioimmunoprecipitation Assay (RIPA) lysis buffer for Western blotting.” left out
Evaluation of retinal neurodegeneration: Retina flat-mounts and explants were immunolabeled for the neuronal marker, NeuN (Millipore), as previously described in Shosha, et al., Cell death & disease, 7:e2483-e (2016). Images were collected and analyzed in a blinded fashion using a semi-automated method. […] NeuN-positive cells were quantified using ImageJ software ‘Batch processing’ function. […] The macro was validated every time it was used to make sure it is compatible with the set of images being analyzed. […]

[3] = test system: bone marrow-derived macrophages (BMDMs); assay: PEG-A1 intracellular uptake by bone marrow-derived macrophages (anti-PEG Western blot); format: cell-based, mouse; details: BMDMs treated overnight, washed with PBS
Procedure: BMDMs: Bone marrow-derived macrophages (BMDMs) were freshly isolated from WT mice and differentiated in culture as described in Fouda, A Y, et al., Cell death & Disease, 9:1001 (2018). To determine PEG-A1 intracellular uptake by macrophages, BMDMs were treated overnight with PEG-A1 or vehicle and then washed several times with phosphate buffered saline (PBS) before collection in RIPA buffer for Western blotting.
Previous studies have shown that myeloid specific A1 deletion using the LysM cre mice leads to increased neurodegeneration in the retinal IR model (Fouda, A Y, et al., Cell death & Disease, 9:1001 (2018)). […] To test the effect of possible neuronal A1 deletion on the previously reported IR outcome in these mice, control and myeloid-specific A1 KO retina explants were subjected to OGD/R (3 hours/21 hours) (FIG. 21A). The explant model excludes any effects due to infiltrating myeloid cells. […] To further test if macrophage can incorporate PEG-A1, BMDMs were treated with PEG-A1 or vehicle overnight and then washed with PBS several times before Western blotting.

[4] = test system: primary rat retinal mixed neurons; assay: Primary retinal mixed neurons subjected to OGD/R, LDH release assay; details: 6 hours OGD and 18 hours reperfusion, PEG-A1 1 μg/mL at reoxygenation
Procedure: Retinas from ten pups were collected and washed twice with ice-cold 1×PBS. They were digested with 0.5% trypsin for 3-4 min at 37° C., followed by trypsin inactivation with the culture medium, DMEM/F12 (Gibco, Grand Island, N.Y.) plus 10% FBS and 1% Penicillin-Streptomycin (P/S) solution (Invitrogen, Grand Island, N.Y.). The retina tissue was mechanically dissociated by pipetting several times until cells were dispersed. Cells were then filtered through a 40 μm nylon-mesh filter, collected by centrifugation at 1000 rpm for 10 min, re-suspended in culture medium, and plated in 6 or 12 well-cell culture plates (Corning, Corning, N.Y.) coated with Poly-D-lysine hydrobromide (PDL, Sigma) at a density of 0.5×10^6 cells/mL. The plates were maintained in a humidified CO2 incubator at 37° C. and 5% CO2. At days 1, 2, and 3 in vitro (DIV), half of the medium was aspirated and replaced with Neurobasal A medium containing 1×B-27 (GIBCO), 1× glutaMAX (GIBCO) and 1% P/S. Experiments were conducted at DIV 6.

[5] = 25 mg/kg i.p. at 3 hours after reperfusion, 24 hours, perfused
[6] = 25 mg/kg i.p. at 3 hours and day 4, day 7, no perfusion

B1: PEG-A1: recombinant human arginase (rhArg) covalently attached to methoxy polyethylene glycol (mPEG-SPA; MW 5,000) via succinamide propionic acid (SPA) linker (protein, UniProt P05089 1-322, looked up)
Arginase-1: MSAKSRTIGIIGAPFSKGQPRGGVEEGPTVLRKAGLLEKLKEQECDVKDYGDLPFADIPNDSPFQIVKNPRSVGKASEQLAGKVAEVKKNGRISLVLGGDHSLAIGSISGHARVHPDLGVIWVDAHTDINTPLTTTSGNLHGQPVSFLLKELKGKIPDVPGFSWVTPCISAKDIVYIGLRDVDPGEHYILKTLGIKYFSMTEVDRLGIGKVMEETLSYLLGRKKRPIHLSFDVDGLDPSFTPATGTPVVGGLTYREGLYITEEIYKTGLLSGLDIMEVNPSLGKTPEEVTRTVNTAVAITLACFGLAREGNHKPIDYLNPPK
modifications: mPEG-SPA 5 kDa conjugate
notes: recombinant human arginase (rhArg) covalently attached to methoxy polyethylene glycol (mPEG-SPA; MW 5,000) via succinamide propionic acid (SPA) linker
In the case of B1, the “anti-PEG immunoreactivity in liver homogenates (Western blot)” value [1, 5] is reported as “strong band”, the “anti-PEG reactivity in retina homogenates, IR-injured retinas” value [1, 5] is reported as “strong anti-PEG reactivity” and the “anti-PEG reactivity in retina homogenates, sham eyes” value [1, 5] is reported as “faint anti-PEG reactive bands”. The “PEG distribution within the retina (flat-mount immunolabeling), IR-injured retinas” value [1, 6] was “more diffuse signal”, the “PEG distribution within the retina (flat-mount immunolabeling), sham retinas” value [1, 6] was “restricted to a vessel-like network” and the “neuronal survival after retinal IR (NeuN, % of sham retina)” value [2] was 62%. For the same molecule, the “anti-PEG band in macrophage cell lysate (intracellular uptake)” value [3] was “strong band” and the “cell death (LDH release)” value [4] was “increased cell death”.
